From the supplement of paper PMC12764529
± gives the half width of the 95% confidence interval.

Legend:
[1] = folding stability dG unfold (combined trypsin and chymotrypsin); higher = more stable
Method in brief: (§1)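 Sequencing followed digestion of designed mini-proteins with trypsin and chymotrypsin, each at 11 concentrations in threefold dilutions together with a no-protease condition. The mini-proteins were under 80 residues, had no cysteine, sat in a PA-tagged cDNA display construct, and were kept only if AlphaFold2 dimer inter-PAE was above 15. From the counts, Bayesian fitting gave K50, and unfolding free energy was derived against a sequence-predicted unfolded-state K50 and a shared folded-state K50, per protease or combined.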

[2] = folding stability dG unfold from trypsin proteolysis; higher = more stable
Method in brief: as §1

[3] = folding stability dG unfold from chymotrypsin proteolysis; higher = more stable
Method in brief: as §1

Sequence	folding stability dG unfold [1]	folding stability dG unfold [2]	folding stability dG unfold [3]
SAGGSAGGSGGMMPVTLTITPVNPPGASTSSTTIPVNFTSPEEAAAAKEKIAAELPSNATVTGSAGGSAGGS [r20_211_JUSTAS]	0.157 ± 0.301 kJ/mol	1.85 ± 0.0397 kJ/mol	-4.62 ± 1.67 kJ/mol
SAGGSAGGSGIPVEPIPVRNPKGEIVEVIRFPEDFALVVFPSGERALLRGPELSLRDVVFFPLSAGGSAGGS [r12_491_TrMRF]	2.23 ± 0.23 kJ/mol	2.82 ± 0.0962 kJ/mol	1.28 ± 0.226 kJ/mol
SAGGSAGGSGITPAAKKIAAEIEKKYPNEKIKVEEELLPNGYLKIKVTTDNGKKYEIIIKVGGSAGGSAGGS [r20_210_TrMRF]	13.5 ± 0.322 kJ/mol	10.5 ± 0.502 kJ/mol	14.7 ± 0.222 kJ/mol
SAGGSAGGSGMAVSVSVTPVRLPDGSVRLVISFSSGSTVVLDLPESEWTPEQVEALVAELVSASAGGSAGGS [r12_218_JUSTAS]	16.3 ± 0.243 kJ/mol	16 ± 0.322 kJ/mol	16.3 ± 0.201 kJ/mol
SAGGSAGGSGMSPEALAIKEQVKAEHPDLRVEVKEKILPNGTLEITVTFDDGTTETYTIPIGESAGGSAGGS [r20_210_JUSTAS]	13.8 ± 0.36 kJ/mol	12.6 ± 0.544 kJ/mol	14.1 ± 0.201 kJ/mol
SAGGSAGGSGMTAEEAREKKVAELKAQGYTPVKVEVVETRTDPATGKVTTKIKIEYKSPKGLTSAGGSAGGS [r20_46_JUSTAS]	1.15 ± 0.586 kJ/mol	0.38 ± 0.339 kJ/mol	1.39 ± 0.502 kJ/mol
SAGGSAGGSGMTVVTLEAEPETAEEAVAAAIQAIRDALPADETIASVEVSFDPATGKVTVVVESAGGSAGGS [r12_308_JUSTAS]	7.54 ± 0.502 kJ/mol	3.17 ± 0.213 kJ/mol	8.41 ± 0.176 kJ/mol
SAGGSAGGSGMVEEEEYEDPATGVRTRTTTTYLPNGTVVRTPVVYTPDRPVEEVPTVTPIPSGSAGGSAGGS [r20_88_JUSTAS]	4.01 ± 0.879 kJ/mol	4.35 ± 0.314 kJ/mol	2.6 ± 0.544 kJ/mol
SAGGSAGGSGPELRPPDVPSTTVPLKVSPEEAKEILKELLGLPEDVEVPFGSIDPATGVITLVSAGGSAGGS [r12_815_JUSTAS]	4.31 ± 0.502 kJ/mol	5.22 ± 0.381 kJ/mol	3.69 ± 0.176 kJ/mol
SAGGSAGGSGPKPRLIKLTFLLEPGKVEEFAQALRDAGFEIVSVEVEPLPDGGERATVTVRIDSAGGSAGGS [r12_905_TrMRF]	14.9 ± 0.259 kJ/mol	11.8 ± 0.389 kJ/mol	16 ± 0.293 kJ/mol
SAGGSAGGSGPNIKVSSSTSTYTLPNGKKVTVKTIVIETENSKYLIVVLTDPNGKSIVFIKPLSAGGSAGGS [r12_213_TrMRF]	16.3 ± 1.17 kJ/mol	13.4 ± 0.962 kJ/mol	16.4 ± 0.628 kJ/mol
SAGGSAGGSGSLLEKLGLEPNSTVTVTVTPEEAEKIRAEPRVKEIKREPTPEDTYLYTITVVASAGGSAGGS [r12_750_JUSTAS]	-1.26 ± 1.17 kJ/mol	-2.95 ± 1.34 kJ/mol	0.0856 ± 0.837 kJ/mol
SAGGSAGGSGSMEFTIDDEDLRIEIKFLPGGKVEITIWDPTNNVPLKTIETEPEEIEEVIEKLSAGGSAGGS [r20_129_JUSTAS]	9 ± 0.343 kJ/mol	9.13 ± 0.711 kJ/mol	8.6 ± 0.201 kJ/mol
SAGGSAGGSGSMSIPVGSPEALREYLRERLPPEADLSEEELEALVEELLAKASIDSDGRLHLASAGGSAGGS [r12_983_JUSTAS]	8.59 ± 0.222 kJ/mol	6.89 ± 0.163 kJ/mol	9.232 ± 0.0502 kJ/mol
SAGGSAGGSGSMTTTTDPNSDITVSSIGSPSGPPVTATLNPKTGTVTVTVGGTPVTIPLDALSSAGGSAGGS [r12_650_JUSTAS]	4.13 ± 0.188 kJ/mol	1.39 ± 0.247 kJ/mol	5.54 ± 0.142 kJ/mol
SAGGSAGGSGSSSLLEETTDASGVRHLLTLVRLPGGKVLLVTTTVYPSGESTTTTEETDGSLLSAGGSAGGS [r12_995_JUSTAS]	8.84 ± 0.247 kJ/mol	10.8 ± 0.251 kJ/mol	6.39 ± 0.151 kJ/mol
SAGGSAGGSGSSSMPVTVEVKPLATEVDPSNGLVTVTELVTVTRGDTTTLTVTTTTLPPGAPASAGGSAGGS [r12_1010_JUSTAS]	2.47 ± 0.41 kJ/mol	4.84 ± 0.113 kJ/mol	0.00155 ± 0.268 kJ/mol
SAGGSAGGSGSSTSANAGGIVTSSSTVPLPPDTRPVSVSTSTPSSKPVKTTVLPDKTVTTPLGSAGGSAGGS [r12_994_JUSTAS]	5.76 ± 0.201 kJ/mol	4.22 ± 0.146 kJ/mol	6.5 ± 0.117 kJ/mol
